These results are taken from publication PMC7921117, “Structural characterization of the microbial enzyme urocanate reductase mediating imidazole propionate production” (Nature Communications, 2021).

The series deals with the molecule itself. Put plainly: elution peak in chromatography during purification; purification of His-tagged UrdA′; the sentence follows the HisTrap HP imidazole gradient; one large asymmetrical peak.

B1: two-domain urocanate reductase UrdA′ (clamp domain and FAD-binding domain) from Shewanella oneidensis MR-1 (domain or fragment, Shewanella oneidensis (strain MR-1), UniProt Q8CVD0 130-582, looked up)
chain: EYTYDVVIIGSGGAGFSAGLEAIAAGRSAVIIEKMPIIGGNSLISGAEMNVAGSWVQKNMGITDSKELFISDTLKGGDFKGDPEMVKTMVDNAVGAAEWLRDYVKVEFYPDQLFQFGGHSVKRALIPKGHTGAEVISKFSIKADEVGLPIHTNTKAEKLIQDQTGRIVGVEAAHNGKTITYHAKRGVVIATGGFSSNMEMRKKYNPELDERYGSTGHAGGTGDGIVMAEKIHAAAKNMGYIQSYPICSPTSGAIALIADSRFFGAVLINQKGERFVEELERRDVISHAILAQPGRYTYVLWNQDIENVAHTVEMHQGELKEFTKDGLMYKVDTLEEAAKVFNIPEDKLLSTIKDVNHYAATGKDEAFNHRSGLVDLSKGPYWILKATPSVHHTMGGLVVDTRTRVLDEQGKVIPGLFAAGEVTGLTHGTNRLGGNAYTDIIVYGRIAGQEAAK
notes: Synthetic gene in pET-24a(+); The main peak fraction, mostly monomeric, was used for further experiments; also called UrdA′wt; Two-domain WT; source: E. coli TUNER (DE3), purified (HisTrap HP; size-exclusion chromatography before crystallization); not shown: 6xHis, C-terminal, kept
As for B1, the binding result was “binds”.
